Key:
Assay in all cases: EMSA; 20 mM HEPES pH 7.4, 100 mM NaCl, 1 mM MgCl2, 1 mg/ml BSA, 2 mM DTT, 5% glycerol; 30 min on ice; native 5% PAGE in 1X TBE
Conditions in all cases: protein: recombinant; tags: GST cleaved; GPLGS left at N-terminus; blunt
STK19 K186E = STK19 K186E (human, UniProt P49842 31-254, K186E)
STK19 R200E/K201E/K203E = STK19 R200E/K201E/K203E (human, UniProt P49842 31-254, R200E;K201E;K203E)
STK19 R215E/R216E = STK19 R215E/R216E (human, UniProt P49842 31-254, R215E;R216E)

Measured: binding result

STK19 K186E, sequence (P49842 31-254 K186E): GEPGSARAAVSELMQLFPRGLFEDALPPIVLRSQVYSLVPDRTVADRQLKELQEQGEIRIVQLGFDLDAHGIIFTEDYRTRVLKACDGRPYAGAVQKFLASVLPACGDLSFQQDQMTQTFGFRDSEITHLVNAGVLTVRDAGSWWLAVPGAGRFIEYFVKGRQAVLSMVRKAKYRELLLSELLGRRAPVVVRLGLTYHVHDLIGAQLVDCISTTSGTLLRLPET
STK19 R200E/K201E/K203E, sequence (P49842 31-254 R200E/K201E/K203E): as the sequence (P49842 31-254 K186E) above, with E156K, R170E, K171E, K173E counted along it
STK19 R215E/R216E, sequence (P49842 31-254 R215E/R216E): as the sequence (P49842 31-254 K186E) above, with E156K, R185E, R186E counted along it

B1: 59 bp dsDNA (dsDNA)
DNA 1: GAGCTGCCGAATTCTACCAGTGCCTTGCTAGGACATCTTTGCCCACCTGCAGGTTCACC
DNA 2: GGTGAACCTGCAGGTGGGCAAAGATGTCCTAGCAAGGCACTGGTAGAATTCGGCAGCTC
no binding: all assays above
